The target of the test is trimeric fusion protein PA-sfGFP-tLM511, O15230;P07942;P11047. The test can be described thus: flow cytometry on cells. The conditions noted are these: 0.5 mM Mn2+; for response (arbitrary units/cell): 30 nM sfGFP-tLM511, parent: est. 3.0, read off a plot. Background: Flow cytometry measures light scatter and fluorescence of single cells or particles in a stream.

Regarding “human α6β1 integrin transiently expressed on Expi293F cells, wild type (from UniProt P05556) α6:D205A”, the response (arbitrary units/cell) worked out at 1.4 and the ratio to parent came to 4.8.
The matching figures for “human α6β1 integrin transiently expressed on Expi293F cells, wild type (from UniProt P05556) α6:E221A”: 2.1 and 2.6.
For the substance “human α6β1 integrin transiently expressed on Expi293F cells, wild type (from UniProt P05556) α6:E219A”, the ratio to parent is 10.7.
